# Experimental data published in US10774132B2, “Ultralong complementarity determining regions and uses thereof” (THE SCRIPPS RESEARCH INSTITUTE, priority 2012, dated 2020).
# Assays:
# Mouse NFS-60 cells = assay: Proliferation assay on mouse NFS-60 cells (AlamarBlue); format: cell-based; conditions: 72 hours
# Experimental: Mouse NFS-60 cells were obtained from American Type Culture Collection (ATCC), VA, and cultured in RPMI-1640 medium supplemented with 10% fetal bovine serum (FBS), 0.05 mM 2-mercapoethanol and 62 ng/ml human macrophage colony stimulating factor (M-CSF). For proliferation assay, mouse NFS-60 cells were washed three times with RPMI-1640 medium and resuspended in RPMI-1640 medium with 10% FBS and 0.05 mM 2-mercapoethanol at a density of 1.5×10^5 cells/ml. In 96-well plates, 100 μl of cell suspension was added into each well, followed by the addition of varied concentrations of bGCSF, BLV1H12 antibody, and the immunoglobulin constructs described herein, Equal volume of PBS buffer was added into the control wells. The plates were incubated at 37° C. in a 5% CO2 incubator for 72 hours. Cells were then treated with AlamarBlue (Invitrogen) ( 1/10 volume of cell suspension) for 4 hours at 37° C. Fluorescence at 595 nm for each well was read to indicate the cell viability.
# Human mPB CD34+ cells = assay: Proliferative activity on human granulocyte progenitors (flow cytometry); format: cell-based; conditions: 7 days, flow cytometry
# Experimental: Human mPB CD34^+ cells were purchased from AllCells. Cells were resuspended in HSC expansion medium (StemSpan SFEM, StemCell Technologies) supplemented with 1× antibiotics and the following recombinant human cytokines: thrombopoietin, IL6, Flt3 ligand, and stem cell factor (100 ng/mL, R & D Systems), then plated in 96-well plates (1000 cells per well), with varied concentrations of BLV1H12-bGCSF fusion antibodies. Cells were cultured for 7 days at 37° C. in a 5% CO2 incubator, then analyzed by flow cytometry to measure cell number and expression of CD45ra and CD41. Cells were stained in staining medium (HBSS supplemented with 2% FBS and 2 mM EDTA) at 4° C. for 1 h with PECy7 anti-CD45ra and eFluor 450 anti-CD41 (eBiosciences), then washed with staining medium and analyzed. Multicolor analysis for cell phenotyping was performed on a LSR II flow cytometer (Becton Dickinson). FIGS. 10A-10E and Tables 9-10 show the human granulocyte progenitor cell proliferative activities of the Ab-GCSF fusion antibodies.
# CXCR1 = biological target: T1, CXCR1 (Homo sapiens, UniProt P25024); assay: Flow cytometry binding to CXCR1-U2OS cells
# T1 construct: host or cells: U2OS
# T1 sequence (P25024 1-350): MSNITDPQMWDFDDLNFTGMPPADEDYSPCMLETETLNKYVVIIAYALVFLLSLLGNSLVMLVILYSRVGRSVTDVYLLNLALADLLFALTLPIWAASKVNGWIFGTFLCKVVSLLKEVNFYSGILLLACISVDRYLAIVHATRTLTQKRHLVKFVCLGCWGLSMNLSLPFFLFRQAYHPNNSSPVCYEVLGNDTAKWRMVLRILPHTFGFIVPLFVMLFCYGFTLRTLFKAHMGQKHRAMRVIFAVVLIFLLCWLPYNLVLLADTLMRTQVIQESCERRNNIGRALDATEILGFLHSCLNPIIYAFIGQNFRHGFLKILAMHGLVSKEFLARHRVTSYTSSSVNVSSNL
# Experimental: (§1) Briefly, a cell line expressing functionally validated CXCR1 derived from U2OS cells was obtained from DiscoveRx and cultured per manufacturer's instructions (Cat #93-0226C3, DiscoveRx Corporation, Freemont, Calif.). The parental cell line U2OS was obtained from ATCC and cultured under the same conditions as the CXCR1 cells. Cell culture supernatants from Example 2 above were then tested for binding to cells by flow cytometry. The adherent U2OS or CXCR1-U2OS cells were dissociated with Accutase (Innovative Cell Technologies, Inc., San Diego, Calif.), neutralized with an equal volume of media containing 10% serum, centrifuged at 1000 g, and resuspended in PBS with 2% BSA. Next, cells were dispensed into microtiter plates to achieve between 30,000 to 300,000 cells per well, centrifuged again, and resuspended in cell culture supernatant containing expressed IgG, or a dilution of IgG-containing cell culture supernatant. A fluorescent-conjugated anti-Human Fc antibody was used to detect binding of the expressed BLV1H12-IL8 fusion proteins to cells.
# Parental U2OS = assay: Flow cytometry binding to parental U2OS cells; conditions: cell culture supernatant
# Experimental: as §1
# [1] = system: NS2-3 non-structural proteins of BVDV; assay: Immunocytometric analysis of HEK 293A cells transfected with BVDV antigens; format: binding, bovine viral diarrhea virus; conditions: 10 μg/ml antibody
# Experimental: (§2) Additionally, binding of the chimeric recombinant antibodies to BVDV antigens was evaluated by immunocytometric analysis of transfected human embryonic kidney (HEK) 293A cells (Invitrogen), as previously described (see, e.g., Njongmeta et al. (2012) Vaccine 30:1624-1635). Briefly, HEK 293A monolayers grown in 6-well tissue culture plates were transfected with 2 µg/well of plasmid (pCDNA3.3, Invitrogen) encoding BVDV antigens (N^pro, E2, or non-structural proteins NS2-3) using Lipofectamine 2000 reagent (Invitrogen), and incubated for 48 hr at 37° C. with 5% CO2. The monolayers were fixed with ice-cold 100% methanol for 10 minutes, rinsed with PBS, and after blocking for 1 hr with PBS containing 5% fetal bovine serum (blocking buffer), the monolayers were incubated at room temperature for 1 hr with 10 μg/ml of a mouse anti-FLAG M2-alkaline phosphatase (AP)-conjugate (Sigma) in blocking buffer or 10 μg/ml of the chimeric recombinant antibodies (H12 or B8). […] Following washes in blocking buffer, the AP activity in all the wells was detected using Fast Red AS-MX substrate (Sigma). […]
# [2] = system: untransfected HEK293A cells; assay: Immunocytometric analysis, untransfected HEK293A cells; format: binding, human; conditions: 10 μg/ml antibody
# Experimental: as §2
# [3] = Pharmacokinetics in mice (ELISA of blood samples); format: in vivo; conditions: 70 μg injected, BALB/c mice
# Experimental: For PK study in mice, 70 μg of the immunoglobulin constructs described herein were injected into 3 BALB/c mice per group. Blood samples were drawn from time 0 to 14 days with extended intervals and analyzed by ELISA using anti-human IgG Fc antibody with horseradish peroxidase (HRP) labeled (KPL) and anti-6×His antibody (“6×His” disclosed as SEQ ID NO: 511) with HRP labeled (Clontech). Data were normalized by taking maximal concentration at the first time point (30 min).
# mice neutrophils = assay: Neutrophil counts in mice, 10th day after injection; format: in vivo; conditions: blood stained and counted at the 10th day post-injection
# Experimental: On the 10th day after injection of BLV1H12-bGCSF fusion antibodies into mice for PK study, blood samples were drawn from the mice and stained using the Diff Quick Staining Kit (Thermo Fisher Scientific, IL). Neutrophils and white blood cells were counted under microscope and the percentages of neutrophils were analyzed. FIGS. 12A-12B and Table 12 show proliferative activities of BLV1H12-bGCSF fusion antibodies on mice neutrophils that are blood stained and counted at the 10th day post-injection.
molecule,measurement,setting,value
"hGCSF: human G-CSF (protein, UniProt P09919 31-207, looked up) Granulocyte …: TPLGPASSLPQSFLLKCLEQVRKIQGDGAALQEKLVSECATYKLCHPEELVLLGHSLGIPWAPLSSCPSQALQLAGCLSQLHSGLFLYQGLLQALEGISPELGPTLDTLQLDVADFATTIWQQMEELGMAPALQPTQGAMPAFASAFQRRAGGVLVASHLQSFLEVSYRVLRHLAQP","F.I. (fluorescence at 595 nm, AlamarBlue, cell viability)",Mouse NFS-60 cells; 0.09145 ng/mL,1266.554
same,"F.I. (fluorescence at 595 nm, AlamarBlue, cell viability)",Mouse NFS-60 cells; 0.27435 ng/mL,1478.287
same,"F.I. (fluorescence at 595 nm, AlamarBlue, cell viability)",Mouse NFS-60 cells; 0.82305 ng/mL,1752.216
same,"F.I. (fluorescence at 595 nm, AlamarBlue, cell viability)",Mouse NFS-60 cells; 2.46914 ng/mL,2224.028
same,"F.I. (fluorescence at 595 nm, AlamarBlue, cell viability)",Mouse NFS-60 cells; 7.40741 ng/mL,2587.222
same,"F.I. (fluorescence at 595 nm, AlamarBlue, cell viability)",Mouse NFS-60 cells; 22.22222 ng/mL,2751.249
same,"F.I. (fluorescence at 595 nm, AlamarBlue, cell viability)",Mouse NFS-60 cells; 66.66667 ng/mL,2815.37
same,"F.I. (fluorescence at 595 nm, AlamarBlue, cell viability)",Mouse NFS-60 cells; 200 ng/mL,2948.509
same,Number of CD45RA-CD41-,Human mPB CD34+ cells; 4.11523 ng/mL,5900
"BLV1H12-IL8: human IL-8 (amino acids 26-99) replacing the knob domain of BLV1H12 CDR3H, SEQ ID NO: 38 (antibody) heavy: QVQLRESGPSLVKPSQTLSLTCTASGFSLSDKAVGWVRQAPGKALEWLGSIDTGGNTGYNPGLKSRLSITKDNSKSQVSLSVSSVTTEDSATYYCTSVHQETKKYQSPRSAKELRCQCIKTYSKPFHPKFIKELRVIESGPHCANTEIIVKLSDGRELCLDPKENWVQRVVEKFLKRAENSGSGSYTYNYEWHVDVWGQGLLVTV",specificity (ratio of median fluorescence of CXCR1-U2OS cells versus U2OS parental cells),CXCR1,has specificity for CXCR1
same,Median Arbitrary Fluorescence Units (IgG binding),"CXCR1; CXCR1-U2OS cells, cell culture supernatant, flow cytometry",707 AFU
same,Median Arbitrary Fluorescence Units (IgG binding),Parental U2OS,76 AFU
"H12 (protein, listed as Bos taurus, H12) CVIVHQKTTQQSSCPAGFRDCVACTPGPESCCRSGCDGARRRVGLRYFFDSTSPITTYTYEHHIDAW",binding to HEK293A cells transfected with NS2-3 of BVDV,[1],strongly binds
same,binding to untransfected cells,[2],weakly bound
"bGCSF: bovine G-CSF (protein, listed as Bos taurus, bGCSF, bovine G-CSF) TPLGPARSLPQSFLLKCLEQVRKIQADGAELQERLCAAHKLCHPEELMLLRHSLGIPQAPLSSCSSQSLQLTSCLNQLHGGLFLYQGLLQALAGISPELAPTLDTLQLDVTDFATNIWLQMEDLGAAPAVQPTQGAMPTFTSAFQRRAGGVLVASQLHRFLELAYRGLRYLAEP","F.I. (fluorescence at 595 nm, AlamarBlue, cell viability)",Mouse NFS-60 cells; 0.09145 ng/mL,1214
same,"F.I. (fluorescence at 595 nm, AlamarBlue, cell viability)",Mouse NFS-60 cells; 0.27435 ng/mL,1360.925
same,"F.I. (fluorescence at 595 nm, AlamarBlue, cell viability)",Mouse NFS-60 cells; 0.82305 ng/mL,1761
same,"F.I. (fluorescence at 595 nm, AlamarBlue, cell viability)",Mouse NFS-60 cells; 2.46914 ng/mL,2101
same,"F.I. (fluorescence at 595 nm, AlamarBlue, cell viability)",Mouse NFS-60 cells; 7.40741 ng/mL,2405
same,"F.I. (fluorescence at 595 nm, AlamarBlue, cell viability)",Mouse NFS-60 cells; 22.22222 ng/mL,2646
same,"F.I. (fluorescence at 595 nm, AlamarBlue, cell viability)",Mouse NFS-60 cells; 66.66667 ng/mL,2812.098
same,"F.I. (fluorescence at 595 nm, AlamarBlue, cell viability)",Mouse NFS-60 cells; 200 ng/mL,3087.144
same,Number of CD45RA-CD41-,Human mPB CD34+ cells; 0.55886 ng/mL,7354
same,Number of CD45RA-CD41-,Human mPB CD34+ cells; 1.67657 ng/mL,9776
same,Number of CD45RA-CD41-,Human mPB CD34+ cells; 5.02972 ng/mL,12700
same,Number of CD45RA-CD41-,Human mPB CD34+ cells; 15.08916 ng/mL,13200
same,Number of CD45RA-CD41-,Human mPB CD34+ cells; 45.26749 ng/mL,13700
same,Number of CD45RA-CD41-,Human mPB CD34+ cells; 135.80247 ng/mL,13300
same,Number of CD45RA-CD41-,Human mPB CD34+ cells; 407.40741 ng/mL,13700
same,Number of CD45RA-CD41-,Human mPB CD34+ cells; 1222.22222 ng/mL,14100
same,Number of CD45RA-CD41-,Human mPB CD34+ cells; 3666.66667 ng/mL,13100
same,Number of CD45RA-CD41-,Human mPB CD34+ cells; 11000 ng/mL,13800
same,"Percentage (blood level normalized to first time point, 30 min)",[3]; 0.5 hour,100.00%
same,"Percentage (blood level normalized to first time point, 30 min)",[3]; 1 hour,79.52%
same,"Percentage (blood level normalized to first time point, 30 min)",[3]; 3 hour,56.81%
same,"Percentage (blood level normalized to first time point, 30 min)",[3]; 6 hour,14.94%
same,"Percentage (blood level normalized to first time point, 30 min)",[3]; 24 hour,4.08%
same,"Percentage (blood level normalized to first time point, 30 min)",[3]; 48 hour,0.00%
same,"Percentage (blood level normalized to first time point, 30 min)",[3]; 72 hour,0.00%
same,Percentage of Neutrophil,mice neutrophils,16.48
